Test results from paper PMC9482650, “Quantitative fragmentomics allow affinity mapping of interactomes” (Nature Communications, 2022).

target: DLG1_2, Q12959; assay: holdup assay; set-up: key: below the threshold = too weak to quantify, mostly under pKd 3.1 to 4; conditions: plain residues with an end cap or a label only (N-terminal biotin on a linker: ado-ado)

Row | Binder | pKd
1 | LPHPHSTTRV [NLGN2, Q8NFZ4] | 4.07

target: T1, NHERF3_4, Q5T2W1; assay: holdup assay; set-up: key: below the threshold = too weak to quantify, mostly under pKd 3.1 to 4; conditions: plain residues with an end cap or a label only (N-terminal biotin on a linker: ado-ado)
T1 sequence (Q5T2W1 373-468, limits assumed, looked up): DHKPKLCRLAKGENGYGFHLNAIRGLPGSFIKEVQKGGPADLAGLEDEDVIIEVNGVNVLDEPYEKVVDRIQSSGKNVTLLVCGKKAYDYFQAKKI

Row | Binder | pKd
2 | LPHPHSTTRV [NLGN2, Q8NFZ4] | below the threshold

target: T2, MPDZ_5, O75970; assay: holdup assay; set-up: key: below the threshold = too weak to quantify, mostly under pKd 3.1 to 4; conditions: plain residues with an end cap or a label only (N-terminal biotin on a linker: ado-ado)
T2 sequence (O75970 695-796, limits assumed, looked up): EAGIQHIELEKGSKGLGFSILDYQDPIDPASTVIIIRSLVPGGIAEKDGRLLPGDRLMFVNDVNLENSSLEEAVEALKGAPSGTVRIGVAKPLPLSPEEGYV

Row | Binder | pKd
3 | LPHPHSTTRV [NLGN2, Q8NFZ4] | below the threshold

target: MAGI2_2, Q86UL8; assay: holdup assay; set-up: key: below the threshold = too weak to quantify, mostly under pKd 3.1 to 4; conditions: plain residues with an end cap or a label only (N-terminal biotin on a linker: ado-ado)
Sequence (Q86UL8 410-522): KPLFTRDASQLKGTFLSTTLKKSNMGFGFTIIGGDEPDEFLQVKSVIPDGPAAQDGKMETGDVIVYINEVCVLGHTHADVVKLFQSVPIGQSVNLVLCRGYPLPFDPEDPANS

Row | Binder | pKd
4 | LPHPHSTTRV [NLGN2, Q8NFZ4] | 4.93

target: T3, MPP6, Q9NZW5; assay: holdup assay; set-up: key: below the threshold = too weak to quantify, mostly under pKd 3.1 to 4; conditions: plain residues with an end cap or a label only (N-terminal biotin on a linker: ado-ado)
T3 sequence (Q9NZW5 125-219, limits assumed, looked up): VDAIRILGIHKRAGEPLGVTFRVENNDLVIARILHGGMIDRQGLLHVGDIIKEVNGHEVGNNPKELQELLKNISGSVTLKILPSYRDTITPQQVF

Row | Binder | pKd
5 | LPHPHSTTRV [NLGN2, Q8NFZ4] | below the threshold

target: T4, NHERF3_1, Q5T2W1; assay: holdup assay; set-up: key: below the threshold = too weak to quantify, mostly under pKd 3.1 to 4; conditions: plain residues with an end cap or a label only (N-terminal biotin on a linker: ado-ado)
T4 sequence (Q5T2W1 4-100, limits assumed, looked up): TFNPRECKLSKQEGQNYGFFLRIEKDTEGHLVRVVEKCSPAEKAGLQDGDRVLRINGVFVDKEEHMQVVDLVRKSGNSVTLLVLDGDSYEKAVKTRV

Row | Binder | pKd
6 | LPHPHSTTRV [NLGN2, Q8NFZ4] | 3.9

target: GRIP2_6, Q9C0E4; assay: holdup assay; set-up: key: below the threshold = too weak to quantify, mostly under pKd 3.1 to 4; conditions: plain residues with an end cap or a label only (N-terminal biotin on a linker: ado-ado)
Sequence (Q9C0E4 648-740): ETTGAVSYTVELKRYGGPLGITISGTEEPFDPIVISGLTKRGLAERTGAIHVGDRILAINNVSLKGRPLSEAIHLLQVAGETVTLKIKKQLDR

Row | Binder | pKd
7 | LPHPHSTTRV [NLGN2, Q8NFZ4] | below the threshold

target: T5, PDZD2_2, O15018; assay: holdup assay; set-up: key: below the threshold = too weak to quantify, mostly under pKd 3.1 to 4; conditions: plain residues with an end cap or a label only (N-terminal biotin on a linker: ado-ado)
T5 sequence (O15018 329-429, limits assumed, looked up): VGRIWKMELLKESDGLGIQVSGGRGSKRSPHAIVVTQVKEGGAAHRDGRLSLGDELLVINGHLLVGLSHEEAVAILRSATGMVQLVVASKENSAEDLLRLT

Row | Binder | pKd
8 | LPHPHSTTRV [NLGN2, Q8NFZ4] | below the threshold

target: MAST1, Q9Y2H9; assay: holdup assay; set-up: key: below the threshold = too weak to quantify, mostly under pKd 3.1 to 4; conditions: plain residues with an end cap or a label only (N-terminal biotin on a linker: ado-ado)
Sequence (Q9Y2H9 962-1065): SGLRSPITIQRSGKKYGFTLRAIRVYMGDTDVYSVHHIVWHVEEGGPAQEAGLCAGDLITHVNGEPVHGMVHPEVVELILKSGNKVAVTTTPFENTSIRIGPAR

Row | Binder | pKd
9 | LPHPHSTTRV [NLGN2, Q8NFZ4] | 4.64

target: IL16_3, Q14005; assay: holdup assay; set-up: key: below the threshold = too weak to quantify, mostly under pKd 3.1 to 4; conditions: plain residues with an end cap or a label only (N-terminal biotin on a linker: ado-ado)
Sequence (Q14005 1107-1207): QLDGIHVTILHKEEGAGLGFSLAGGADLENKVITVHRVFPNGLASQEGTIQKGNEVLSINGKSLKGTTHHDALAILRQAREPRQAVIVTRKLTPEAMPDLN

Row | Binder | pKd
10 | LPHPHSTTRV [NLGN2, Q8NFZ4] | below the threshold

target: T6, SNTA1, Q13424; assay: holdup assay; set-up: key: below the threshold = too weak to quantify, mostly under pKd 3.1 to 4; conditions: plain residues with an end cap or a label only (N-terminal biotin on a linker: ado-ado)
T6 sequence (Q13424 82-180, limits assumed, looked up): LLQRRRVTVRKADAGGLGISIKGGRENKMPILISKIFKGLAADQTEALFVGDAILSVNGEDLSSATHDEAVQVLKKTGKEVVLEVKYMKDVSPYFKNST

Row | Binder | pKd
11 | LPHPHSTTRV [NLGN2, Q8NFZ4] | 4.18

target: GIPC2, Q8TF65; assay: holdup assay; set-up: key: below the threshold = too weak to quantify, mostly under pKd 3.1 to 4; conditions: plain residues with an end cap or a label only (N-terminal biotin on a linker: ado-ado)
Sequence (Q8TF65 112-203): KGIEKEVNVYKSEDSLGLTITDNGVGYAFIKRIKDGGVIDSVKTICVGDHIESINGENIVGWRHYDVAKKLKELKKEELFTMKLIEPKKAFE

Row | Binder | pKd
12 | LPHPHSTTRV [NLGN2, Q8NFZ4] | below the threshold

target: DLG1_1, Q12959; assay: holdup assay; set-up: key: below the threshold = too weak to quantify, mostly under pKd 3.1 to 4; conditions: plain residues with an end cap or a label only (N-terminal biotin on a linker: ado-ado)

Row | Binder | pKd
13 | LPHPHSTTRV [NLGN2, Q8NFZ4] | 3.78

target: GRASP, Q7Z6J2; assay: holdup assay; set-up: key: below the threshold = too weak to quantify, mostly under pKd 3.1 to 4; conditions: plain residues with an end cap or a label only (N-terminal biotin on a linker: ado-ado)
Sequence (Q7Z6J2 96-193): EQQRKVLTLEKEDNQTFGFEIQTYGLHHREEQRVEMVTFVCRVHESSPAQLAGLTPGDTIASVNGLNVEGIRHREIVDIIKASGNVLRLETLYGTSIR

Row | Binder | pKd
14 | LPHPHSTTRV [NLGN2, Q8NFZ4] | 4.18

target: GRIP2_5, Q9C0E4; assay: holdup assay; set-up: key: below the threshold = too weak to quantify, mostly under pKd 3.1 to 4; conditions: plain residues with an end cap or a label only (N-terminal biotin on a linker: ado-ado)
Sequence (Q9C0E4 544-642): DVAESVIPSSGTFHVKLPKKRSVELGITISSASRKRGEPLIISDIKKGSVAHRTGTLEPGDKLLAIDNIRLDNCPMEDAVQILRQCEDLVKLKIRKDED

Row | Binder | pKd
15 | LPHPHSTTRV [NLGN2, Q8NFZ4] | below the threshold

target: FRMPD2_2, Q68DX3; assay: holdup assay; set-up: key: below the threshold = too weak to quantify, mostly under pKd 3.1 to 4; conditions: plain residues with an end cap or a label only (N-terminal biotin on a linker: ado-ado)
Sequence (Q68DX3 944-1038): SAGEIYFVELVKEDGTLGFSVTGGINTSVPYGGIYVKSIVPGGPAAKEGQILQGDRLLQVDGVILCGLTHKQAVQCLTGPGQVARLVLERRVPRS

Row | Binder | pKd
16 | LPHPHSTTRV [NLGN2, Q8NFZ4] | 3.59

target: FRMPD2_3, Q68DX3; assay: holdup assay; set-up: key: below the threshold = too weak to quantify, mostly under pKd 3.1 to 4; conditions: plain residues with an end cap or a label only (N-terminal biotin on a linker: ado-ado)
Sequence (Q68DX3 1073-1166): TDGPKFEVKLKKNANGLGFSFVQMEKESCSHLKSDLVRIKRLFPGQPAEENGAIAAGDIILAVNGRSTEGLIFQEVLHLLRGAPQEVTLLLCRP

Row | Binder | pKd
17 | LPHPHSTTRV [NLGN2, Q8NFZ4] | below the threshold

target: T7, DFNB31_2, Q9P202; assay: holdup assay; set-up: key: below the threshold = too weak to quantify, mostly under pKd 3.1 to 4; conditions: plain residues with an end cap or a label only (N-terminal biotin on a linker: ado-ado)
T7 sequence (Q9P202 274-371, limits assumed, looked up): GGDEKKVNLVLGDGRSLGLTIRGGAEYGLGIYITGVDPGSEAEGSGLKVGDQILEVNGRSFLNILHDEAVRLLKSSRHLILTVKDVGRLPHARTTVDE

Row | Binder | pKd
18 | LPHPHSTTRV [NLGN2, Q8NFZ4] | below the threshold

target: GRID2IP_2, A4D2P6; assay: holdup assay; set-up: key: below the threshold = too weak to quantify, mostly under pKd 3.1 to 4; conditions: plain residues with an end cap or a label only (N-terminal biotin on a linker: ado-ado)
Sequence (A4D2P6 272-370): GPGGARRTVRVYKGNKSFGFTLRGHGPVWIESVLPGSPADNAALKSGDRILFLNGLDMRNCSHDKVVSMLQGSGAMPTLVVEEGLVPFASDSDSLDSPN

Row | Binder | pKd
19 | LPHPHSTTRV [NLGN2, Q8NFZ4] | 3.63

target: T8, LIN7A, O14910; assay: holdup assay; set-up: key: below the threshold = too weak to quantify, mostly under pKd 3.1 to 4; conditions: plain residues with an end cap or a label only (N-terminal biotin on a linker: ado-ado)
T8 sequence (O14910 103-200, limits assumed, looked up): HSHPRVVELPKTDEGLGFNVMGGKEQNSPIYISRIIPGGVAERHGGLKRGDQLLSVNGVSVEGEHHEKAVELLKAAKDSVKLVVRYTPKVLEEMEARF

Row | Binder | pKd
20 | LPHPHSTTRV [NLGN2, Q8NFZ4] | below the threshold

target: T9, SIPA1L2, Q9P2F8; assay: holdup assay; set-up: key: below the threshold = too weak to quantify, mostly under pKd 3.1 to 4; conditions: plain residues with an end cap or a label only (N-terminal biotin on a linker: ado-ado)
T9 sequence (Q9P2F8 945-1036, limits assumed, looked up): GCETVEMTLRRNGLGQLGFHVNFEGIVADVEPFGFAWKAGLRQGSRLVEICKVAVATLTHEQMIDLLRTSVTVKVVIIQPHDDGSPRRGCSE

Row | Binder | pKd
21 | LPHPHSTTRV [NLGN2, Q8NFZ4] | below the threshold

target: NHERF2_2, Q15599; assay: holdup assay; set-up: key: below the threshold = too weak to quantify, mostly under pKd 3.1 to 4; conditions: plain residues with an end cap or a label only (N-terminal biotin on a linker: ado-ado)
Sequence (Q15599 142-238): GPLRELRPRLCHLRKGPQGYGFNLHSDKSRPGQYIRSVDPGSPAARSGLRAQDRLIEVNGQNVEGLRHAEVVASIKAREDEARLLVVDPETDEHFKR

Row | Binder | pKd
22 | LPHPHSTTRV [NLGN2, Q8NFZ4] | 3.75

target: DLG2_3, Q15700; assay: holdup assay; set-up: key: below the threshold = too weak to quantify, mostly under pKd 3.1 to 4; conditions: plain residues with an end cap or a label only (N-terminal biotin on a linker: ado-ado)

Row | Binder | pKd
23 | LPHPHSTTRV [NLGN2, Q8NFZ4] | 4.42

target: T10, CARD11, Q9BXL7; assay: holdup assay; set-up: key: below the threshold = too weak to quantify, mostly under pKd 3.1 to 4; conditions: plain residues with an end cap or a label only (N-terminal biotin on a linker: ado-ado)
T10 sequence (Q9BXL7 662-765, limits assumed, looked up): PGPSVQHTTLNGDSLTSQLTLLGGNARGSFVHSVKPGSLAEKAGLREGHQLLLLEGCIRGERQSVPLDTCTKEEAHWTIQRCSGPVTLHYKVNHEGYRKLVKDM

Row | Binder | pKd
24 | LPHPHSTTRV [NLGN2, Q8NFZ4] | below the threshold

target: T11, PCLO, Q9Y6V0; assay: holdup assay; set-up: key: below the threshold = too weak to quantify, mostly under pKd 3.1 to 4; conditions: plain residues with an end cap or a label only (N-terminal biotin on a linker: ado-ado)
T11 sequence (Q9Y6V0 4491-4600, limits assumed, looked up): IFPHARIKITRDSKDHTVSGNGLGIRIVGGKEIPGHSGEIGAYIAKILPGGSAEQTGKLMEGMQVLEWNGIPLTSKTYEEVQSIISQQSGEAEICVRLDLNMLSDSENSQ

Row | Binder | pKd
25 | LPHPHSTTRV [NLGN2, Q8NFZ4] | below the threshold

target: T12, DFNB31_3, Q9P202; assay: holdup assay; set-up: key: below the threshold = too weak to quantify, mostly under pKd 3.1 to 4; conditions: plain residues with an end cap or a label only (N-terminal biotin on a linker: ado-ado)
T12 sequence (Q9P202 811-907, limits assumed, looked up): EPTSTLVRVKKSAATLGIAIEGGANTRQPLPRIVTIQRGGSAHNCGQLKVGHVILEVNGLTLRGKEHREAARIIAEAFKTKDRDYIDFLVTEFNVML

Row | Binder | pKd
26 | LPHPHSTTRV [NLGN2, Q8NFZ4] | below the threshold
